Among the data in patent US7329737 (DYAX, dated 2008) are Kd, koff and kon values, retold here.

As usually defined, the Kd is the equilibrium constant for the complex coming apart. One may read the koff as the rate constant with which the complex falls apart. As a reminder, the kon is a measure of how fast the partners come together.

The target of the experiment is T1, hK1 (human tissue kallikrein 1), recombinant (human, UniProt P06870 25-262).
T1 construct: Expressed in P. pastoris from KLK1 cDNA and purified; enzymatically active; also called KLK1; Recombinant (Pichia) Kallikrein
As to the kind of experiment: SPR. (Surface plasmon resonance follows binding to a sensor surface in real time, without labels.)

B1: M0099-A09 (Fab, V domains shown)
VH: EVQLLESGGGLVQPGGSLRLSCAASGFTFSRYAMFWVRQAPGKGLEWVSSISPSGGKTRYADSVKGRFTISRDNSKNTLYLQMNSLRAEDTAVYYCARGGGTALDYWGQGTLVTVSS
VL: DIQMTQSPGTLSLSPGERATLSCRASQSVYSSYLAWYQQKPGQAPRLLIYAASNRAIGIPDRFSGSGSGTDFTLTISSMQPEDFATYYCQQSYSTPRFGQGTKLEIKR
As to B1, the Kd is 10.7 nM, the koff was found to be 0.00285 s⁻¹ and the kon came out at 267000 M⁻¹ s⁻¹.

B2: M0125-C04 (Fab, V domains shown)
VH: EVQLLESGGGLVQPGGSLRLSCAASGFTFSHYVMDWVRQAPGKGLEWVSSIYPSGGWTRYADSVKGRFTISRDNSRNTLYLQMNSLRAEDTAVYYCARRGQWLVLDYWGQGTLVTVSS
VL: AQSELTQPASVSGSPGQSITISCAGTSSDLGGYDYVSWYQQYPGKAPKLIIYQVGRRPSGVSNRFSGSKSGNTASLTISGLQTEDEADYYCSSYTSSRTRVFGGGTRVTVLG
Take B2: the Kd amounted to 11.2 nM, the koff came to 0.00536 s⁻¹ and the kon is 478000 M⁻¹ s⁻¹.

B3: M0138-E12 (Fab, V domains shown)
VH: EVQLLESGGGLVQPGGSLRLSCAASGFTFSWYVMRWVRQAPGKGLEWVSSIYPSGGQTRYADSVKGRFTISRDNSKNTLYLQMNSLRAEDTAMYYCATGYSSTWGAFDIWGQGTMVTVSS
VL: AQSALTQPASVSGSPGQSITISCSGTSSDVGAYYHVSWYQQHPGKAPKLMIYEVTNRPSGISNRFSGSKSGNTASLTISGLQADDEADYFCSSYTTSNTLVFGGGTKVTVLG
In the case of B3, the Kd is 10 nM, the koff amounted to 0.00149 s⁻¹ and the kon amounted to 148000 M⁻¹ s⁻¹.

B4: M0108-C10 (Fab, V domains shown)
VH: EVQLLESGGGLVQPGGSLRLSCAASGFTFSRYVMAWVRQAPGKGLEWVSVIRPSGGKTLYADSVKGRFTISRDNSKNTLYLQMNSLRAEDTAVYYCARVAGRVGVPATKKNWFDPWGQGTLVTVSS
VL: AQSVLTQPASVSGSPGQSITISCTGTSSDVGGYNYVSWYQQHPGQPPKLIIYEVSNRASGVSNRFSGSKFGNTASLTISGLQSEDEADYHCSSYTSSTTLLFGGGTRLTVLG
Turning to B4, the Kd was 12.2 nM, the koff amounted to 0.00431 s⁻¹ and the kon worked out at 353000 M⁻¹ s⁻¹.

B5: M0101-E01 (Fab, V domains shown)
VH: EVQLLESGGGLVQPGGSLRLSCAASGFTFSPYIMSWVRQAPGKGLEWVSSIVSSGGVTLYADSVKGRFTISRDNSKNTLYLQMNSLRAEDTAVYYCTKNINLRYDILTGYFDIWGQGTTVTVSS
VL: DIQMTQSPSSVSASVGDRVTITCRAGQNIYYWLAWYQQKPGKAPQLLIYAASSLQSGVPSRFSGSGSGTDFTLTISSLQPEDFATYYCQQAKSFPVTFGGGTKVEIKR
As for B5, the Kd was found to be 9.74 nM, the koff worked out at 0.000941 s⁻¹ and the kon is 96600 M⁻¹ s⁻¹.

B6: M0122-H04 (Fab, V domains shown)
VH: EVQLLESGGGLVQPGGSLRLSCAASGFTFSRYAMAWVRQAPGKGLEWVSSIGSSGGVTKYADSVKGRFTISRDNSKNTLYLQMNSLRAEDTAVYYCAAPRGRYYYDSSGYYYGGVFDYWGQGTLVTVSS
VL: AQYELTQPRSVSGSPGQSVTISCTGTSSDVGGFNYVSWYQQHPGKAPKLMIYDVSKRPSGVPDRFSGSKSGTTASLTISGLQADDEADYYCCSYTGNYTYVFGTGTKVTVLG
Regarding B6, the Kd turned out to be 11.8 nM, the koff was determined as 0.000802 s⁻¹ and the kon came out at 68200 M⁻¹ s⁻¹.

B7: M0105-F02 (Fab, V domains shown)
VH: EVQLLESGGGLVQPGGSLRLSCAASGFTFSRYWMAWVRQAPGKGLEWVSSIGPSGGSTKYADSVKGRFTISRDNSKNTLYLQMNSLRAEDTAVYYCARTARWLSFDYWGQGTLVTVSS
VL: DIQMTQSPSTLSASVGDRVTITCRASQSISSWLAWYQQKPGEAPKLLIYAASSLRNGVPSRFIGSGSGTDFTLTISSLQPEDFATYYCQQSYSTPPTFGGGTKVEIKR
B7: the Kd was 10.9 nM, the koff is 0.0103 s⁻¹ and the kon is 947000 M⁻¹ s⁻¹.

B8: M0104-B03 (Fab, V domains shown)
VH: EVQLLESGGGLVQPGGSLRLSCAASGFTFSNYTMFWVRQAPGKGLEWVSSIYPSGGITRYADSVKGRFTISRDNSKNTLYLQMNSLRAEDTAVYYCARVSFWNAFDIWGQGTMVTVSS
VL: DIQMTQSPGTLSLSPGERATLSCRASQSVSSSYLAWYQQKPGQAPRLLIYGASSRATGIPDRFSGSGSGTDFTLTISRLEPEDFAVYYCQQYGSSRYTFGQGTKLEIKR
Regarding B8, the Kd is 10.1 nM, the koff was 0.00711 s⁻¹ and the kon was 707000 M⁻¹ s⁻¹.

B9: M0096-E11 (Fab, V domains shown)
VH: EVQLLESGGGLVQPGGSLRLSCAASGFTFSHYLMYWVRQAPGKGLEWVSSIYPSGGFTAYADSVKGRFTISRDNSKNTLYLQMNSLRAEDTAVYYCARRGVYGTFDIWGQGTMVTVSS
VL: DIQMTQSPLSLSASVGDRVTMTCRASQTISSYLNWYQQKPGKAPKLLIYTTSSLQSGVPSRFSGSGSGTEFTLTISSLQPEDFATYYCQQSHSSPTFGGGTKVEIKR
For B9, the Kd was determined as 10.1 nM, the koff was 0.00836 s⁻¹ and the kon was 827000 M⁻¹ s⁻¹.

B10: M0112-C02 (Fab, V domains shown)
VH: EVQLLESGGGLVQPGGSLRLSCAASGFTFSNYYMLWVRQAPGKGLEWVSYIRSSGGSTRYADSVKGRFTISRDNSKNTLYLQMNSLRAEDTAVYYCAKPTVDGAFDYWGQGTLVTVSS
VL: DIQMTQSPGTLSLSPGDRATLSCRASQSVSSNYLAWYQQKPGQAPRLLIYGASSRATGIPDRFSGSGSGTDFTLTISRLEPEDFGVYYCQQFGSSLFTFGPGTKVNIKR
On to B10, for which the Kd worked out at 10.9 nM, the koff was 0.00523 s⁻¹ and the kon amounted to 481000 M⁻¹ s⁻¹.

B11: M0103-A03 (Fab, V domains shown)
VH: EVQLLESGGGLVQPGGSLRLSCAASGFTFSHYPMSWVRQAPGKGLEWVSYIRSGGYTTYADSVKGRFTISRDNSKNTLYLQMNSLRAEDTAVYYCARERVFCSGGRCGSYFDYWGQGTLVTVSS
VL: DIQMTQSPSSVSASVGDRVTITCRASQDVRRFLAWYQQKPGKAPKLLIYAASSLQSGVPSRFSGSGSGTDFTLTISSLQPEDFATYYCQQANSFPITFGQGTRLEIKR
Turning to B11, the Kd is 10.6 nM, the koff came to 0.00988 s⁻¹ and the kon worked out at 931000 M⁻¹ s⁻¹.

B12: M0092-B12 (Fab, V domains shown)
VH: EVQLLESGGGLVQPGGSLRLSCAASGFTFSQYLMAWVRQAPGKGLEWVSSIYPSGGNTNYADSVKGRFTISRDNSKNTLYLQMNSLRAEDTAVYYCARDRSIVPYSSSWYMPRDYYYGMDVWGQGTTVTVSS
VL: DIQMTQSPSSLSASVGDRVTITCRASQGISNYLAWYQQKPGKVPKLLIYAASTLQSGVPSRFSGSGSGTDFTLTISSLQPEDFATYYCQQSYSTPYTFGQGTKLEVRR
Take B12: the Kd is 12.1 nM, the koff was 0.00171 s⁻¹ and the kon stood at 141000 M⁻¹ s⁻¹.

B13: M0139-A04 (Fab, V domains shown)
VH: EVQLLESGGGLVQPGGSLRLSCAASGFTFSHYPMTWVRQAPGKGLEWVSSIRPSGGNTGYADSVKGRFTISRDNSKNTLYLQMNSLRAEDTAVYYCARLTGYSSGWFWAYGMDVWGQGTTVTVSS
VL: DIQMTQSPGTLSLSPGDRATLSCRASQSVSSSYLAWYQQKAGQAPRLLIYGAASRATGIPDRFSGSGSGTDFTLTISRLEREDFAVYYCQQYGSSPLITFGQGTRLEIKR
In the case of B13, the Kd is 12.2 nM, the koff is 0.00503 s⁻¹ and the kon stood at 411000 M⁻¹ s⁻¹.

B14: M0109-E08 (Fab, V domains shown)
VH: EVQLLESGGGLVQPGGSLRLSCAASGFTFSHYTMLWVRQAPGKGLEWVSSIYSSGGSTYYADSVKGRFTISRDNSKNTLYLQMNSLRAEDTAVYYCARVGVWYGMDVWGQGTTVTVSS
VL: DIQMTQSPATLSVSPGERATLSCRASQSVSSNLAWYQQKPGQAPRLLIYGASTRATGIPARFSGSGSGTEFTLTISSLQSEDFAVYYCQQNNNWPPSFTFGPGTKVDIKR
For B14, the Kd was 10.1 nM, the koff was 0.00889 s⁻¹ and the kon is 880000 M⁻¹ s⁻¹.
